Consider 18 sequences from a protein production outcome set (Wang et al. 2014).

This series is described as follows: label from the status in PepcDB records.
Consider “MTMFGKIFSKKTPKTDIKSNGEALNASEIEQFIKDTLSHYISDNFPQGVLAVCQQLSITQKKKITIKLLMPFVCQGELDLLAQTLSENLARTVNFEIDLAIKPVRQFSLGNDKNKAGQEGMLQGKVANIIAIASGKGGVGKSTTTVNLAYALMCEGARVGILDADIYGPSIPSMLGLKNEKPSSSDGKLMTPVDAKGLSAMSIGFLVDEADATVWRGPMASSAFNQLLNETDWPELDYLLIDMPPGTGDIQLTLAQKVPVAAAVIVTTPQDIALIDAVKGIAMFDKVKVPVLGIVENMSYHLCENCGHKSHIFGEAGGEHMAEDHETKLLGQLPLDITIRQDADFGESDIIENSAGEIANHYRKIARNVSAQLFLQCDTASPLTATVAHKALEHHHHHH”, for which the protein production result was “not failed”.
The result for “MTMQDILYYIHTYGLIVLFLIVVGEYCVPAMPTGIVMPAAGIIAGQAHKGIIKVMLISLIAGLVGSIILYLLGYFVGSTLLEKIKIKHPKIEDKLEKTEKILEKHSFLGIFICRLIPIIRTYVSLICGTVKVNFFKFIIFSIPGIFCWNFTGIVVGYFFGGKIRF” reads “failed”; that for “MTMREYMLGNVAIARGLLEGGVQVIAGYPGTPSSEIIDTLASREDRDYHIEWSVNEKVAMEVAVGAAWTGVRSVVTMKHVGLNVAADPFMTLAYAGTKGGLIAIVADDPSCHSSQNEQDTRRYAQFALVPCFDPSTPQEAKDMLPYAFEFSEKFEIPVIFRPTTRISHGKSDIELGEIPAEKAVPHFEKLLDRWVMLPKNARPRHTHILSIQQAMEDELAESPWNSLEIKPGAKMGVIGSGIASVYAKEALQELGLEASFLKIGTYPVPKKLILELLSTVDTVLIFEELEPVVEEQVRILAQEAGLEVSVLGKEGGFVSREGELDVSAFLEALRKAFDLDIEPDSGKVPLELAPRPPSLCAGCSHRATFYSMKKVFGKDAIYPSDIGCYTLGIQSGTVETTLCMGSSISIASGLYHAGEKRPICCSIGDSTFFHTGMNSLLNAVFNKANITVTILDNRITAMTGHQPNPGVGFTVTGEPTVEVSLAELCKAMGAGFVTVVDPYNLEETQEAFKAAKEFEGTAVVIAKQPCVISGKRAGIKRVPYIVDPEKCEGCKQCVKFGCPAIEFDEENKCAVITSLCSGCGVCAQICKFDAIREVKR”, “failed”.
For the sequence “MTNAEAVTVTNKQIIFPDYVTGFPKESDLKITTTTIDLRLPEGSTSVLVKNLYLSCDPYMRICMGKPDPLSSSLVPPYKTGVPIIGLGVSKVIDSGHPDYKKGDLLWGLVGWEEYSVITLTTYSHFKIEHTDVPLSYYTGLLGMPGMTAYAGFYEVCSPKKGETVFVSAASGAVGQLVGQFAKLMGCYVVGSAGSKEKVYLLKTKFGFDDAFNYKEEKDFSAALKRYFPEGIDIYFENVGGKMLDAVLINMKLHGRVAVCGMISQYNLVDPEGVHNLPTILYKRIQLQGFGVCDFYDKYPKFLDFVLPYIREGKITYVEDIAEGFESGPSALLGLFEGKNVGKQLFVVARE”, the protein production entry is listed as “failed”.
The result for “MTNAISNFTIYAFVALGGACGASLRFYISQLVLNWLGKGFPFATLMVNIIGSFTMGLLYQLIEHEILNVSVHRTLIGIGFLGAFTTFSTFSLDSLLLLQQGDVLKAAINILLNVSLCIAAAALGMFMVTTLTK” reads “failed”; that for “MTNFTQSINFPGSLPLTRNLLAAACFFAMTQASAAGFISDVKQISDQEVRSGEGYYRADGKWLVYQAEVAGENPFYQIYLKNIASGEVQQVSPGIGKTTCSWVHPIQEKVLFSSTHEDPEAKAKMTTEIEQRKSGQRRSYAWDYDEFYDIYETDFAGGNIRNLTHTKGYDAEASWSPDGRLIAFASNRRAYSEPLSEAETVLFSNDPSSMIDIYIMDADGSNVKRLTHTNSYDGGPFFSPDGKRIVWRRFSENGQEAEIFTMNTDGSDQKQITRLNKMSWAPFYHPSNQYIIFATNVHGHRNFELYIVDIDGKKEPVRVTDEEGFDGLPVFTPDGQYITWTSDRTPDHKGRLFHGKWDHKKALESLGLE”, “failed”; that for “MTNHQHPQTTTQWIDLIANSELPAITSTARMLDKFSNDDKSSLPKLSEAILHDQGLSSCLLKVANNIQHISINKVTTVSRASVVLGIQSVKNICLTAKLVSSLLASKSLDINVYEQLTQLMANSFYAGMLAKMMVPNYSEEIQEEVYLAAMLYRIGESAFWSAGGDVAKKLANYEAKSPQDFNQYCRKEMGTNFSELSKGLAGTWNLSDLLIKALDQPTTRTDEVKVIYFADKLSAIIAKPEGCEEDYHKLLKEIAYIVGISVRQLTVRIEHTREQAEKLLSSYGAEILTERINSLPTAEDFKSLGGDFDTREVVSKDKALLNGFMKLTKLIQNSKDFNEYLQLTLESLALTFAFDRSSFLMLVDDRARVKSRLVVNKNAQDDASKINIDIKHSDNVIARVISTDTAALINDHQEIRWRDLVTEEISEVIVEGAIAFVPVKIGGKAIGVICLQLLSPDQKIETQDFQQICAFIDHLNMCLTMIKYS”, “failed”.
In the case of “MTNITPEAKNTNRHSVLLVEKEGRNLARKYHQVLVEELTIIKQGYKTFSSKNIAIPSGFWYHYDTSLTDSYENAKSECFYIPNDNQNYPLQEMRRDCKEYERVEKQVVFKNNKNNELNELPKYLNNAKKY” it was “failed”; in that of “MTNLEAKENNLIKDLASKQRVAIAYSGGIDSTYLLKVAVDELGKDNVLAMVVNSELFLDDEYNKALELAKDLGANAMGVSMSELADERIAANTPESWYYSKQLLYRTIKKAAAEKGFDIVLDGMIMDDNADFRPGMKARTEEGIVSSLQDADLYKSEIRELAKDRGISNWNKVASC”, “not failed”.
Regarding “MTNMKTHAREWAALDKSACFLFCSGDNDVAQQLGHAIGDLGLLTQELPEPEQLARRLADIDPQVVFLDFTGGQADPGKLLLAADLARVLARVAPAVPRVAVGYLAQPDGAIAALRAGVSDFVDPSVSPDEVHGVVQRLVSNRRIGGGSGGEHRSVLILGARPGVGASTLAVHMAGLTQERMAQAALARQGAVAGKPARSAEVMAAQLPLSDRVGVLDLGWPIGDCLLYLNISSDFDFAEAARNLSRLDGTLLNSAMAHTASGVSALALPREVEQVRALSPNDSLLLFERLRQHYGTLVTDAGGLANPEFVAKLARASHETWLVTDQSVSALVSLAGAVQELEQFHVEKSALRLVVNRYDERYGMSAAQIAERFGLELAGTLPDRTLSLMVCTNQGRLLHEQAERDIYVRAVQTLVDRLLAGSEAPRARHNSWLANWLPGVHRLTNVVESLEHHHHHH”, the protein production entry is “failed”.
The result for “MTNNEYTDISNKETDVSPANIEQLKSVSMIWFVPFVALLIGAWMIYYQLSNEGPVITIAFDSAEGMEIGKTKIKSYNVDIGEVSNIVLNENADGVIVTARMTKNAEKLLNKNSDFWLVSPEISHTGISGLSTLISGVYIEFYPSSIHEEEVDELTSEFIALKDPPVTPPGAPGLHLTLNSNDQFAYSKGDPIIYKGLTVGQFEHIHFNFEERVVYYNAFIKAPYHQLVTTNTKFWDVSGLRMDLTADGLSIQTGNIETMLTNGVTFDVPKGMENGEEITERSYFDIYANYKEADDERYKYSVEYIVLVSNTIRGLSVGAPVEYRGVLIGHVKSINLLAQRNSDRPQIFDEDIKIPILISLQPGRVGLPDNEMGVSLMKQQHQLWIKDGLRASLKTGSLLTGSLFIDFQHYSDLNNEEENTQRTDFENSQYGEYTIIPSVDDEFSQITAKASQFIDNLNALPLEKISGNTNELITEFTQTAKSFQSVSDNLSGVLDGVNQQQLTQELKTTLQSYTKLSKDLSAGSKGYEDLRQTLSALTKVMNELQPLLNQLKHQPNGLIFESGKVDAIEPKKYTPNKKAE” reads “failed”.
The result for “MTNTTYVQEYHAIVEVLSKYNEGGKKADSTIMRPAFSSQATIFGVDVDNKLTGGPIQGLFDVIDNVFHPSPEAKAAIARIDIVGTAASARIDTDDISGFRFTDFFNLLKVEGKWTVVSKIYHTHPSA” reads “not failed”; that for “MTNVISYNNDKGLLAYIQFLADRALKPSNGNTDPVFDFEDALDQTEMAQLAVDELKKIPEVNTLFAERWLPAPFNLDDLAKLPEGTLGHVYAIEMKARGFDPYFYKKVPVVDDISYLKMLWRSTHDIYHVVAGFDTDGIGEIGLQAFVLAQTPIPISVMLVSFGMVMTSLYQPAKFQDLMAEIARGYSLGSHTPRKLIAQKWDQFWDVPVIEIRECLGMNTVKQRERA”, “failed”.
Consider “MTPDDQLSAFLGEQPATSRADLFTAVVMQKIERRAFLRDVAAAGGWAAVVGLVAWACAPVLNVLIGALAPGLAPAAAALALVAATLLVSSPSVRRRLGLAAV”, for which the protein production result is recorded as “failed”.
The result for “MTPDRKGDGGPSPLGDLKDALGGYLSAAGHGLVGRAGDRLGSLTDRLTESADGGGANGGTGGSEPGTGGSRSGSDGSKSGSGGSKSGSGGSKSGGSVKATHIMETVDIGVPLRTVYDQWTQLQDFSDFTKGVQSVSPHDETTSDWTAKIAFSTRSWKATVQEQIPDQRIVWTSEGAKGSTNGVVTFHELAPRLTRVVVVVEYYPAGFFEKTGNLWRAQGRRLRLDLKHFARHVTMTDAEEIEGWRGEIRDGEVVKSHEEALEEDEDAADEYEDDEEGEYDEEESDGEVPDGEEEPYADEDDGEYENDDAYEADDEDDERARPRR” reads “failed”.
“MTPEPDGPEDRLRRFATIWSRAVFPVTSTPLTRPELENRLLPLARRLSEALRARAFDAAEAKAVGAALIDAHCTDPDALSATLDCVDAYLVLYCGTPDASPGDQEALRTRASRLQHAMAAGFAQALRERTLAEQEAISVAALQAQGVVGQALHASEARFRAVFEGAAIGIGIADLEGNILQINGALLRMFGGSEQAVRGRNVTDWTHPDDAPQVWRLYEELVRGEREHYHVEKAFYRPDGTVLWTNLTVSLLRDADGRPEYQLALMEDTTERRLLNLRLRYEATHDALTGLPNRTLFFERLEKALSAGGGQRFGLCYLDLDGFKTINDSLGHAAGDRLLVEVADRLQSCATAPGEMVARLGGDEFVALTTGPDTEREVDELAGRIMNALVTPISIDGRELAVRGSIGIVEGPAGERGPAEVLRSADITMYRAKSAGGNRFELADPEADARAITRHGLTTALPAALDRNEFFIEYQPLVHLGDGSVRGAEALVRWLHPQHGVLGPDRFIPLAEHTGLIVPLGRWVLEQSVRQAREWQERHCAEAAAPLRINVNLSPCQLTHPGLVSDTVDILERSGLEPGALCLEVTESALIGADDDLLKPLRRLAEMGVDIALDDFGTGYSNLANLRRLPVSILKLDRSFTQGMQQYPADPVDLKIVEGIVTLAHSLDLAVTVEGVETGAQAEQLRILGCDTAQGWYYARPGPPERLHELALVDATG”: the protein production result was “failed”.
The result for “MTPFTVDILIPIWNRPVETRNCLVTLMETTPSARLILIDNGSDRETERLLEEFSEILGERALFLKTSANQGFVRAVNRSLAQVEAPYAVVMQNTTLVTRGWLEPMVELADSRPDAGIIVPRLELEDGQGRRPKAAPPAGPVTEVSHGSFAASMVRRELVERQGGFDEELDGGPWCLRDYSRRAFRNGFLTLALDGAVVTYAEEVPLGSVARREETVRRSAETCRARWGREDAFCIYFPKDAEPEAVHGKLDVILRGARMGQCFTLILHPGLHKSLMETGHAPLHSNIALAPLPRFFATGEIRKIIGKLASVRGDTVTVAGVDGLSIPGVEGARSFSWLADEIRRRHESLYRPESPLEHHHHHH” reads “not failed”; that for “MTPHATPAPRVSAIVSLYNAERFVRGCLDDLLGQTLADSLEIIVIDACSPQGEGAIVQDYMRDHPNIVYVRTDEREGVYASWNRGVRLARAPYVTNANADDRHREDALERLAAALDEAPEAGFAYGDCRVGQTENERYADNAGQRVMRFPDFFAPATLLYCQLGPQPLWRRSVHDVVGFFDESYRACADWDFDIRLAAAFRGIHVPDALGLYLEHEAAITFRDDTMTRENDRVQRQWQHPEAVEERYRAAGVPCHTAEERALVHFDMALRALRFYPPWCYGAPAHNPGFARRCLRHALRLAPALAPAKELLALPDAVLTALDDLPSPLGLPSQATLAGVAAPLEHHHHHH”, “failed”.
